The test addresses GST-ELOB/ELOC complex (UniProt Q15370). Briefly: fluorescence polarisation.

For EPOPwt (peptide), the Ki – broadly, the equilibrium dissociation constant of an inhibitor or competing ligand from its target – was determined as 2.35 nM.

Regarding EPOPwt-FAM (peptide), the Kd (usually a measure of binding affinity in units of concentration) was 0.45 nM.
